Measured values reported in patent US20210138090A1, “uPAR targeting peptide for use in peroperative optical imaging of invasive cancer” (FLUOGUIDE A/S, priority 2014, published 2021).
Square brackets hold non-standard residues; d marks the D form. Peptide text beside a SMILES is read from it. * marks the point of attachment. IRDye800CW = CC1(C)C(/C=C/C2=C(Oc3ccc(S(=O)(=O)O)cc3)C(=C/C=C3/N(CCCCS(=O)(=O)O)c4ccc(S(=O)(=O)O)cc4C3(C)C)/CCC2)=[N+](CCCCCC(=O)*)c2ccc(S(=O)(=O)[O-])cc21; Cha = N[C@@H](CC1CCCCC1)C(=O)O; AEEA = NCCOCCOCC(=O)O

Key:
[1] = vis/NIR spectral properties; format: physicochemical
Method: Fluorophore excitation and emission profiles were obtained with PTI QuantaMaster 400 (Horiba Ltd., Japan). Excitation profile was measured at λemission=850 nm and the emission profile were measured at λexcitation=740 nm with xenon arc lamps as excitation source. Absorption was measured on a Cary 300 UV-Vis (Agilent, Santa Clara, Calif., USA).

[2] = test system: orthotopic GBM (U-87 MG-luc2 cells); test: dynamic NIR imaging of orthotopic GBM on cross sectioned brain (Fluobeam); format: in vivo, mice; conditions: for tumor mean fluorescence intensity (MFI): 333 ms exposure
Method: All experimental procedures in animals were carried out in accordance with the approval by The Animal Experiments Inspectorate, Denmark. 7-10-week-old female nude mice (strain: Rj:NMRI-Foxn1nu/nu, JANVIER LABS, France) were orthotopically xenografted with U-87 MG-luc2 cells.
The orthotopic GBM tumor model was established by inoculation of 500.000 cells in 10 μL ice cold PBS in the right hemisphere (1.5 mm lateral and 0.5 mm posterior to the bregma at 2 mm depth) using a stereotaxic frame (KOPF INSTRUMENTS, Tujunga, Calif., USA) with the automated microinjection pump UMP3 (WPI, Sarasota, Fla., USA). The cells were injected over 5 min with the syringe kept in place for further 3 min before retraction. Tumor growth was subsequently monitored on MRI with the BioSpec 7T (Bruker, Billerica, Mass., USA) with axial and coronal T2-wighted sequences. When the tumor size reached 2-17 mm^3, the animals were included in the fluorescence imaging protocol.
All image acquisition was performed with the Fluobeam system with (Fluosoft version: 2.2.1) (Fluoptics, Grenoble, France). To characterize the in vivo biodistribution and tumor imaging properties, IRDye800-AE344 was administered through tail vein injection into all the GBM bearing mice (n=35) at four different doses: 1 nmol, 3 nmol, 6 nmol, and 12 nmol. Two mice were sacrificed for each time point and the brain was removed and cross sectioned through the tumor for imaging. […] Accordingly, image acquisition was performed at following time points after injection: • 1 nmol: 0.5 h, 1 h, and 2 h • 3 nmol: 1 h, 2 h, 3 h, and 5 h • 6 nmol: 1 h, 3 h, 6 h, and 12 h • 12 nmol: 1 h, 3 h, 5 h, 10 h, 15 h, and 24 h
Images were analyzed and processed in ImageJ 1.52a, NIH, USA. Signal measurements were performed on the raw images generated by the Fluoptics system. Tumor signal was measured as a mean fluorescence intensity of the whole tumor and background signal was measured as the mean of a representative area with no tumor on the contralateral hemisphere. Presented pictures are contrast enhanced in ImageJ with the Contrast Enhancement (Saturated pixels: 0.3%).

[3] = acute toxicity: liver and kidney histology; format: in vivo, mice; conditions: 3 nmol, 1 h post injection
Excerpt: Liver and kidneys: Tissue was formalin fixed and paraffin embedded. Sections of 2-4 um thick were cut and a routine staining panel applied including: H&E, modified sirius, PAS and Masson trichome for both and additional PAS with silver for kidneys and PAS with diastase, iron, reticulin artisan and oxidised orcein for the livers. Livers were immunohistochemically stained, immunohistochemical evaluation on 3 μm thick sections was done using the CK7 antibody from Dako/Agilent, GA619 (clone OV-TL12/30) following the manufacturer's instructions. The staining took place on the Omnis from Agilent utilizing the EnVision Flex+ detection kit (GV800). The primary antibody was diluted using Antibody Diluent (Dako DM830) and were incubated for 20 minutes. The sections were counterstained with hematoxylin.

[4] = biodistribution by organ fluorescence imaging; format: in vivo, mice; conditions: 3 nmol, 1 h
Excerpt: […] Due to renal excretion, the fluorescence signal in the kidneys were out of scale compared to all the other organs. […] The skin was imaged partially (1.25 g) and the biodistribution was extrapolated with respect to the full weight of the skin (4.9 g).

[5] = photostability under continuous laser exposure; format: physicochemical
Method: The photostability was evaluated by a factor 2 dilution series with four samples from 0.23-1.8 nM IRDye800-AE344 in 100 μL phosphate buffered saline (PBS) placed in a black 96-well plate. The well was placed in a black box with the Fluobeam mounted in the top at a distance of 23 cm from the well plate. Image acquisition was performed at 0 min, 10 min, 15 min, 20 min, 0.5 h, 1 h, 2 h, 3 h, 6 h, 10 h, 15 h, 24 h. Each dilution sample was normalized to time point 0 and the data from all four samples were pooled.

Compound: CC(C)C[C@H](NC(=O)[C@H](Cc1ccc(O)cc1)NC(=O)[C@@H](CCCNC(=N)N)NC(=O)[C@@H](CO)NC(=O)[C@H](Cc1ccccc1)NC(=O)[C@H](CC1CCCCC1)NC(=O)[C@H](CC(=O)O)NC(=O)COCCOCCNC(=O)COCCOCCNC(=O)[C@H](CCC(=O)O)NC(=O)[C@H](CCC(=O)O)NC(=O)CCCCC[N+]1=C(/C=C/C2=C(Oc3ccc(S(=O)(=O)O)cc3)C(=C/C=C3/N(CCCCS(=O)(=O)O)c4ccc(S(=O)(=O)O)cc4C3(C)C)/CCC2)C(C)(C)c2cc(S(=O)(=O)[O-])ccc21)C(=O)N[C@@H](Cc1c[nH]c2ccccc12)C(=O)N[C@@H](CO)C(=O)O [IRDye800CW-AE344, IRDye800-Glu-Glu-O2Oc-O2Oc-Asp-Cha-Phe-D-ser-D-arg-Tyr-Leu-Trp-Ser-OH] (IRDye800CW-EE[AEEA][AEEA]D[Cha]F[dS][dR]YLWS-OH)
- Stokes shift [1]: 10 nm
- absorption peak λabs,max [1]: 777 nm
- excitation peak λexcitation,max [1]: 784 nm
- peak emission λemission,max [1]: 794 nm
- maximal TBR ([2]; 1 nmol, at 0.5 h): 4.4
- tumor mean fluorescence intensity (MFI) ([2]; 1 nmol, at time of maximal TBR (0.5 h)): 29 a.u.
- maximal TBR ([2]; 3 nmol, at 1 h): 6.6
- tumor mean fluorescence intensity (MFI) ([2]; 3 nmol, at time of maximal TBR (1 h)): 77 a.u.
- TBR ([2]; 6 nmol, 1 h): 4.7
- tumor MFI ([2]; 6 nmol, 1 h): 108 a.u.
- tumor mean fluorescence intensity (MFI) ([2]; 6 nmol, 3 h): 82 a.u.
- TBR (highest) ([2]; 6 nmol, 3 h after injection): 7.0
- TBR ([2]; 6 nmol, 6 h): 6.1
- TBR ([2]; 6 nmol, 12 h): 4.5
- decrease in tumor MFI ([2]; 6 nmol, from 1 h to 3 h): 24%
- TBR ([2]; 6 nmol, from 1 h to 12 h after injection): above 4.5
- peak time of TBR ([2]; 12 nmol): 15 h
- tumor MFI relative to that at 6 nmol ([2]; 12 nmol): 58%
- maximal TBR ([2]; 12 nmol, at 15 h): 6.7
- tumor mean fluorescence intensity (MFI) ([2]; 12 nmol, at time of maximal TBR (15 h)): 48 a.u.
- kidney histology (H&E stained) [3]: normal
- liver histology (H&E stained) [3]: normal
- MFI brain ([4]; 333 ms exposure): 19 a.u.
- MFI liver ([4]; 333 ms exposure): 88 a.u.
- MFI lungs ([4]; 333 ms exposure): 101 a.u.
- MFI skin ([4]; 333 ms exposure): 99 a.u.
- MFI tumor ([4]; 333 ms exposure): 65 a.u.
- normalized uptake brain ([4]; normalized to skin=100): 0.7
- normalized uptake colon ([4]; normalized to skin=100): 4.0
- normalized uptake heart ([4]; normalized to skin=100): 0.4
- normalized uptake kidneys ([4]; normalized to skin=100): 38.8
- normalized uptake liver ([4]; normalized to skin=100): 12.2
- normalized uptake lungs ([4]; normalized to skin=100): 4.2
- normalized uptake pancreas ([4]; normalized to skin=100): 3.4
- normalized uptake small intestine ([4]; normalized to skin=100): 11.2
- normalized uptake spleen ([4]; normalized to skin=100): 0.4
- normalized uptake tumor ([4]; normalized to skin=100): 0.1
- normalized uptake ventricle ([4]; normalized to skin=100): 0.9
- normalized uptake skin ([4]; skin = reference): 100
- MFI kidneys ([4]; extrapolated from 40 ms exposure): 1,236 a.u.
- preserved fluorescence intensity (photostability) ([5]; continuous laser exposure for 1 h): 84%
- preserved fluorescence intensity (photostability) ([5]; continuous laser exposure, after 2 h): 62%
